Source: patent US20240409629A1 (CHIA TAI TIANQING PHARMACEUTICAL GROUP, published 2024)

Experiments:
human CLDN18.2 [1] = biological target: T1, human CLDN18.2 (human); experiment: FACS, NUGC-4 cells (natural CLDN18.2)
T1 construct: also called claudin18.2
Experimental: (§1) Based on the FACS method, the binding activity of anti-CLDN18.2 humanized antibodies for the cell lines KATOIII (Cell Bank of the Chinese Academy of Sciences) and NUGC-4 (Cell Bank of the Chinese Academy of Sciences) naturally expressing CLDN18.2 was analyzed. […] See Example 3 for the specific method.

human CLDN18.2 [2] = biological target: T1, human CLDN18.2; experiment: FACS, KATOIII cells (natural CLDN18.2)
Experimental: as §1

human CLDN18.2 [3] = biological target: T1, human CLDN18.2; experiment: cell-based or functional assay
human CLDN18.2 [4] = biological target: T1, human CLDN18.2; experiment: cell-based or functional assay; remark: listed apart in the source
human CLDN18.2 [5] = biological target: T1, human CLDN18.2; experiment: FACS, NUGC-4 cells (natural CLDN18.2); remark: listed apart in the source
Experimental: as §1

human CLDN18.2 [6] = biological target: T1, human CLDN18.2; experiment: cell-based or functional assay; remark: listed apart in the source
human CLDN18.2 [7] = biological target: T1, human CLDN18.2; experiment: FACS, KATOIII cells (natural CLDN18.2); remark: listed apart in the source
Experimental: as §1

Binder | EC50 (human CLDN18.2 [1]) [nM] | EC50 (human CLDN18.2 [2]) [nM] | ADCC EC50, Jurkat-CD16a v158-NFAT-luciferase effector cells, KATOIII target cells (human CLDN18.2 [3]) [nM] | ADCC EC50, Jurkat-CD16a v158-NFAT-luciferase effector cells, U2OS-CLDN18.2 target cells (human CLDN18.2 [3]) [nM] | CDC EC50, NIH-3T3-CLDN18.2 target cells (human CLDN18.2 [4]) [nM] | EC50 (human CLDN18.2 [5]) [nM] | ADCC EC50, Jurkat-CD16a v158-NFAT-luciferase effector cells, NIH-3T3-CLDN18.2 target cells (human CLDN18.2 [6]) [nM] | ADCC EC50, Jurkat-CD16a v158-NFAT-luciferase effector cells, NUGC-4 target cells (human CLDN18.2 [6]) [nM] | EC50 (human CLDN18.2 [7]) [nM]
humanized antibody hz28G3-1.2 (antibody, human IgG1, kappa, V domains shown) VH: QVQLVQSGAEVKKPGASVKVSCKASGYTFTDYLMLWVRQAPGQGLEWMGNINPYYGRTYYALKFQGRVTMTVDRSTSTVYMELSSLRSEDTAVYYCARDGYSLRNAMDYWGQGTLVTVSS VL: DIVMTQSPDSLAVSLGERATINCKSSQSLFNSGNQKNYLAWYQQKPGQPPKLLIYGASTRESGVPDRFSGSGSGTDFTLTISSLQAEDVAVYYCQNAHSYPYTFGQGTKVEIKR | 14.1 | 5.84 | 0.396 | 0.015 |  |  |  |  | 
humanized antibody hz40F6-1.3 (antibody, human IgG1, kappa, V domains shown) VH: QVQLVESGGGVVQPGRSLRLSCAASGFTLTSYGVYWVRQAPGKGLEWVAVVWAGGNTNYADALKGRFTISKDNSKSTLYLQMNSLRAEDTAVYYCARDRGRLLAMDYWGQGTLVTVSS VL: DIVMTQSPDSLAVSLGERATINCKSSQSLLNSGNQKNYLAWYQQKPGQPPKLLIYGASTRESGVPDRFTGSGSGTDFTLTISSLQAEDVAVYYCQNDHFFPFTFGQGTKVEIKR |  |  |  |  | 0.84 | 17.7 | 0.017 | 0.023 | 7.9
humanized antibody hz28G3-2.2 (antibody, human IgG1, kappa, V domains shown) VH: QVQLVQSGAEVKKPGASVKVSCKASGYTFTDYLMLWVRQAPGQGLEWMGNINPYYGRTYYALKFQGRVTMTVDRSTSTVYMELSSLRSEDTAVYYCARDGYSLRNAMDYWGQGTLVTVSS VL: DIVMTQSPYSLAVSLGERATINCKSSQSLFNSGNQKNYLAWYQQKPGQPPKLLIYGASTRESGVPDRFTGSGSGTDFTLTISSLQAEDVAVYYCQNAHSYPYTFGQGTKVEIKR | 12.4 | 5.92 | 0.861 | 0.017 |  |  |  |  | 
humanized antibody hz28G3-2.1 (antibody, human IgG1, kappa, V domains shown) VH: QVQLVQSGAEVKKPGASVKVSCKTSGYSFTDYLMLWVRQAPGQGLEWMGNINPYYGRTTYALKFKGRVTMTVDRSTSTVYMELSSLRSEDTAVYYCARDGYSLRNAMDYWGQGTLVTVSS VL: DIVMTQSPYSLAVSLGERATINCKSSQSLFNSGNQKNYLAWYQQKPGQPPKLLIYGASTRESGVPDRFTGSGSGTDFTLTISSLQAEDVAVYYCQNAHSYPYTFGQGTKVEIKR | 12.1 | 7.25 | 0.184 | 0.019 |  |  |  |  | 
humanized antibody hz28G3-2.4 (antibody, human IgG1, kappa, V domains shown) VH: QVQLVQSGAEVKKPGASVKVSCKASGYTFTDYLMLWVRQAHGQSLEWMGNINPYYGRTYYALKFQGRVTMTVDRSTSTVYMELSSLRSEDTAVYYCARDGYSLRNAMDYWGQGTLVTVSS VL: DIVMTQSPYSLAVSLGERATINCKSSQSLFNSGNQKNYLAWYQQKPGQPPKLLIYGASTRESGVPDRFTGSGSGTDFTLTISSLQAEDVAVYYCQNAHSYPYTFGQGTKVEIKR | 14.2 | 5.62 | 0.275 | 0.017 |  |  |  |  | 
humanized antibody hz28G3-2.3 (antibody, human IgG1, kappa, V domains shown) VH: QVQLVQSGAEVKKPGASVKVSCKTSGYSFTDYLMLWVRQAHGQSLEWMGNINPYYGRTTYALKFKGRVTMTVDRSTSTVYMELSSLRSEDTAVYYCARDGYSLRNAMDYWGQGTLVTVSS VL: DIVMTQSPYSLAVSLGERATINCKSSQSLFNSGNQKNYLAWYQQKPGQPPKLLIYGASTRESGVPDRFTGSGSGTDFTLTISSLQAEDVAVYYCQNAHSYPYTFGQGTKVEIKR | 11.9 | 6.54 | 0.209 | 0.019 |  |  |  |  | 
humanized antibody hz28G3-1.4 (antibody, human IgG1, kappa, V domains shown) VH: QVQLVQSGAEVKKPGASVKVSCKASGYTFTDYLMLWVRQAHGQSLEWMGNINPYYGRTYYALKFQGRVTMTVDRSTSTVYMELSSLRSEDTAVYYCARDGYSLRNAMDYWGQGTLVTVSS VL: DIVMTQSPDSLAVSLGERATINCKSSQSLFNSGNQKNYLAWYQQKPGQPPKLLIYGASTRESGVPDRFSGSGSGTDFTLTISSLQAEDVAVYYCQNAHSYPYTFGQGTKVEIKR | 14 | 5.83 | 0.184 | 0.017 |  |  |  |  | 

Further lines, results first:

EC50 (human CLDN18.2 [1]) [nM] | EC50 (human CLDN18.2 [2]) [nM] | ADCC EC50, Jurkat-CD16a v158-NFAT-luciferase effector cells, KATOIII target cells (human CLDN18.2 [3]) [nM] | ADCC EC50, Jurkat-CD16a v158-NFAT-luciferase effector cells, U2OS-CLDN18.2 target cells (human CLDN18.2 [3]) [nM] | CDC EC50, NIH-3T3-CLDN18.2 target cells (human CLDN18.2 [4]) [nM] | EC50 (human CLDN18.2 [5]) [nM] | ADCC EC50, Jurkat-CD16a v158-NFAT-luciferase effector cells, NIH-3T3-CLDN18.2 target cells (human CLDN18.2 [6]) [nM] | ADCC EC50, Jurkat-CD16a v158-NFAT-luciferase effector cells, NUGC-4 target cells (human CLDN18.2 [6]) [nM] | EC50 (human CLDN18.2 [7]) [nM] | Binder
 |  |  |  | 3.8 | 18.7 | 0.012 | 0.149 | 8.77 | humanized antibody hz40F6-2.1 (antibody, human IgG1, kappa, V domains shown) VH: QVQLVESGGGVVQPGRSLRLSCAASGFTLTSYGVYWVRQAPGKGLEWVAVVWAGGNTNYADSVKGRFTISKDNSKSTLYLQMNSLRAEDTAVYYCARDRGRLLAMDYWGQGTLVTVSS VL: DIVMTQSPDSLAVSLGERATINCKSSQSLLNSGNQKNYLAWYQQKPGQPPKLLIYGASTRESGVPDRFSGSGSGTDFTLTISSLQAEDVAVYYCQNDYFFPFTFGQGTKVEIKR
 |  |  |  | 1.47 | 20 | 0.013 | 0.045 | 8.24 | humanized antibody hz40F6-1.1 (antibody, human IgG1, kappa, V domains shown) VH: QVQLVESGGGVVQPGRSLRLSCAASGFTLTSYGVYWVRQAPGKGLEWVAVVWAGGNTNYADSVKGRFTISKDNSKSTLYLQMNSLRAEDTAVYYCARDRGRLLAMDYWGQGTLVTVSS VL: DIVMTQSPDSLAVSLGERATINCKSSQSLLNSGNQKNYLAWYQQKPGQPPKLLIYGASTRESGVPDRFTGSGSGTDFTLTISSLQAEDVAVYYCQNDHFFPFTFGQGTKVEIKR
 |  |  |  | 0.53 | 14.9 | 0.01 | 0.019 | 7.54 | humanized antibody hz40F6-2.2 (antibody, human IgG1, kappa, V domains shown) VH: QVQLVESGGGVVQPGRSLRLSCAASGFTLTSYGVYWVRQAPGKGLEWVAVVWAGGNTNYNSALMSRFTISKDNSKSTLYLQMNSLRAEDTAVYYCARDRGRLLAMDYWGQGTLVTVSS VL: DIVMTQSPDSLAVSLGERATINCKSSQSLLNSGNQKNYLAWYQQKPGQPPKLLIYGASTRESGVPDRFSGSGSGTDFTLTISSLQAEDVAVYYCQNDYFFPFTFGQGTKVEIKR
 |  |  |  | 0.54 | 16 | 0.03 | 0.019 | 7.42 | humanized antibody hz40F6-1.2 (antibody, human IgG1, kappa, V domains shown) VH: QVQLVESGGGVVQPGRSLRLSCAASGFTLTSYGVYWVRQAPGKGLEWVAVVWAGGNTNYNSALMSRFTISKDNSKSTLYLQMNSLRAEDTAVYYCARDRGRLLAMDYWGQGTLVTVSS VL: DIVMTQSPDSLAVSLGERATINCKSSQSLLNSGNQKNYLAWYQQKPGQPPKLLIYGASTRESGVPDRFTGSGSGTDFTLTISSLQAEDVAVYYCQNDHFFPFTFGQGTKVEIKR
